± gives the standard deviation of the averaged measurements.
Tests used:
[1] = system: hTERT-HMEC; assay: percentage of EdU-negative (G0-arrested) nuclei per well, 72 h; higher = more G0 arrest; conditions: reference: sequence is the full UniProt precursor, the tested protein was the secreted form or ectodomain
[2] = system: MCF7; assay: as above; conditions: reference: sequence is the full UniProt precursor, the tested protein was the secreted form or ectodomain
[3] = protein concentration 0.0225 µM
[4] = protein concentration 0.0294286 µM
[5] = protein concentration 0.294286 µM
[6] = protein concentration 0.014515 µM
[7] = protein concentration 0.14515 µM
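Note: secreted proteins added to cultured cells, EdU pulse at the end, nuclei found by Hoechst imaging, EdU status from nuclear versus surrounding ring intensity ratio, PBS as neutral control.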

Row | Sequence | percentage of EdU-negative [1, 3] | percentage of EdU-negative ([1]; protein concentration 0.225 µM) | percentage of EdU-negative [2, 3] | percentage of EdU-negative ([2]; protein concentration 0.225 µM) | also measured
1 | MARYMLLLLLAVWVLTGELWPGAEARAAPYGVRLCGREFIRAVIFTCGGSRWRRSDILAHEAMGDTFPDADADEDSLAGELDEAMGSSEWLALTKSPQAFYRGRPSWQGTPGVLRGSRDVLAGLSSSCCKWGCSKSEISSLC [Q8WXF3] | 4.41 ± 0.39% | 5.85 ± 0.42% | 26.3 ± 1.9% | 26.3 ± 0.94% | –
2 | MASEIHMTGPMCLIENTNGRLMANPEALKILSAITQPMVVVAIVGLYRTGKSYLMNKLAGKKKGFSLGSTVQSHTKGIWMWCVPHPKKPGHILVLLDTEGLGDVEKGDNQNDSWIFALAVLLSSTFVYNSIGTINQQAMDQLYYVTELTHRIRSKSSPDENENEVEDSADFVSFFPDFVWTLRDFSLDLEADGQPLTPDEYLTYSLKLKKGTSQKDETFNLPRLCIRKFFPKKKCFVFDRPVHRRKLAQLEKLQDEELDPEFVQQVADFCSYIFSNSKTKTLSGGIQVNGPRLESLVLTYVNAISSGDLPCMENAVLALAQIENSAAVQKAIAHYEQQMGQKVQLPTETLQELLDLHRDSEREAIEVFIRSSFKDVDHLFQKELAAQLEKKRDDFCKQNQEASSDRCSALLQVIFSPLEEEVKAGIYSKPGGYRLFVQKLQDLKKKYYEEPRKGIQAEEILQTYLKSKESMTDAILQTDQTLTEKEKEIEVERVKAESAQASAKMLQEMQRKNEQMMEQKERSYQEHLKQLTEKMENDRVQLLKEQERTLALKLQEQEQLLKEGFQKESRIMKNEIQDLQTKMRRRKACTIS | 4.44 ± 0.5% | 12.6 ± 1.4% | 26.5 ± 3.6% | 29.1 ± 1.2% | –
3 | MASHSGPSTSVLFLFCCLGGWLASHTLPVRLLRPSDDVQKIVEELQSLSKMLLKDVEEEKGVLVSQNYTLPCLSPDAQPPNNIHSPAIRAYLKTIRQLDNKSVIDEIIEHLDKLIFQDAPETNISVPTDTHECKRFILTISQQFSECMDLALKSLTSGAQQATT [Q6EBC2] | 4.96 ± 0.56% | 5.69 ± 0.58% | 26.6 ± 1.1% | 24.9 ± 1.8% | –
4 | MASLRVERAGGPRLPRTRVGRPAALRLLLLLGAVLNPHEALAQPLPTTGTPGSEGGTVKNYETAVQFCWNHYKDQMDPIEKDWCDWAMISRPYSTLRDCLEHFAELFDLGFPNPLAERIIFETHQIHFANCSLVQPTFSDPPEDVLLAMIIAPICLIPFLITLVVWRSKDSEAQA | 4.96 ± 0.83% | 5.12 ± 0.077% | 26.4 ± 3.1% | 23.7 ± 0.28% | –
5 | MASPGCLLCVLGLLLCGAASLELSRPHGDTAKKPIIGILMQKCRNKVMKNYGRYYIAASYVKYLESAGARVVPVRLDLTEKDYEILFKSINGILFPGGSVDLRRSDYAKVAKIFYNLSIQSFDDGDYFPVWGTCLGFEELSLLISGECLLTATDTVDVAMPLNFTGGQLHSRMFQNFPTELLLSLAVEPLTANFHKWSLSVKNFTMNEKLKKFFNVLTTNTDGKIEFISTMEGYKYPVYGVQWHPEKAPYEWKNLDGISHAPNAVKTAFYLAEFFVNEARKNNHHFKSESEEEKALIYQFSPIYTGNISSFQQCYIFD | – | – | – | – | percentage of EdU-negative [1, 4]: 4.45 ± 0.47%; percentage of EdU-negative [1, 5]: 4.7 ± 0.28%; percentage of EdU-negative [2, 4]: 25 ± 0.49%; percentage of EdU-negative [2, 5]: 25.9 ± 2.2%
6 | MASPGCLWLLAVALLPWTCASRALQHLDPPAPLPLVIWHGMGDSCCNPLSMGAIKKMVEKKIPGIYVLSLEIGKTLMEDVENSFFLNVNSQVTTVCQALAKDPKLQQGYNAMGFSQGGQFLRAVAQRCPSPPMINLISVGGQHQGVFGLPRCPGESSHICDFIRKTLNAGAYSKVVQERLVQAEYWHDPIKEDVYRNHSIFLADINQERGINESYKKNLMALKKFVMVKFLNDSIVDPVDSEWFGFYRSGQAKETIPLQETSLYTQDRLGLKEMDNAGQLVFLATEGDHLQLSEEWFYAHIIPFLG | 4.49 ± 0.2% | 9.52 ± 0.25% | 25.6 ± 1.6% | 26.4 ± 0.39% | –
7 | MASRLTLLTLLLLLLAGDRASSNPNATSSSSQDPESLQDRGEGKVATTVISKMLFVEPILEVSSLPTTNSTTNSATKITANTTDEPTTQPTTEPTTQPTIQPTQPTTQLPTDSPTQPTTGSFCPGPVTLCSDLESHSTEAVLGDALVDFSLKLYHAFSAMKKVETNMAFSPFSIASLLTQVLLGAGENTKTNLESILSYPKDFTCVHQALKGFTTKGVTSVSQIFHSPDLAIRDTFVNASRTLYSSSPRVLSNNSDANLELINTWVAKNTNNKISRLLDSLPSDTRLVLLNAIYLSAKWKTTFDPKKTRMEPFHFKNSVIKVPMMNSKKYPVAHFIDQTLKAKVGQLQLSHNLSLVILVPQNLKHRLEDMEQALSPSVFKAIMEKLEMSKFQPTLLTLPRIKVTTSQDMLSIMEKLEFFDFSYDLNLCGLTEDPDLQVSAMQHQTVLELTETGVEAAAASAISVARTLLVFEVQQPFLFVLWDQQHKFPVFMGRVYDPRA | – | – | – | – | percentage of EdU-negative [1, 6]: 5.48 ± 0.2%; percentage of EdU-negative [1, 7]: 5.33 ± 0.56%; percentage of EdU-negative [2, 6]: 25.6 ± 1.5%; percentage of EdU-negative [2, 7]: 26 ± 0.75%
8 | MASRWAVQLLLVAAWSMGCGEALKCYTCKEPMTSASCRTITRCKPEDTACMTTLVTVEAEYPFNQSPVVTRSCSSSCVATDPDSIGAAHLIFCCFRDLCNSEL | 5.43 ± 0.94% | 5.61 ± 1% | 23.5 ± 2.8% | 26.6 ± 1.9% | –
